Tests used:
[1] = biological target: Helicobacter pylori FabX R164A (H. pylori)
[2] = biological target: Helicobacter pylori FabX (H. pylori); test: SEC-MALS; 10 mg/ml FabX, holo-ACP or FabX-holo-ACP complex on a WTC-030S5 column; 20 mM HEPES pH 8.0, 50 mM NaCl, 10 mM TCEP
[3] = substrate: CCCCCCCCCC(=O)SCCNC(=O)CCNC(=O)[C@H](O)C(C)(C)COP(=O)(O)OP(=O)(O)OC[C@H]1O[C@@H](n2cnc3c(N)ncnc32)[C@H](O)[C@@H]1OP(=O)(O)O; test: purified protein; assay type: biochemical, Helicobacter pylori; settings: pH 7.2, 50 mM sodium phosphate, 50 mM NaCl, 25-37 °C, 1.25 uM FabX, 5 uM E. coli FabI, 125 uM NADH, dehydrogenation of substrate analogue of decanoyl-ACP, 30-250 uM

B1: Helicobacter pylori decanoyl-acyl carrier protein (natural protein)
chain: MALFEDIQAVIAEQLNVDAVQVTPEAEFVKDLGADSLDVVELIMALEEKFGVEIPDEQAEKIINVGDVVKYIEDNKLA
Question: For B1, which in vitro dehydrogenation activity with decanoyl-ACP (FabX-FabI coupled assay), fold reduction against wild type FabX [1] is on record?
Answer: 80 fold

B2: Helicobacter pylori holo-acyl carrier protein (natural protein)
chain: MALFEDIQAVIAEQLNVDAVQVTPEAEFVKDLGADSLDVVELIMALEEKFGVEIPDEQAEKIINVGDVVKYIEDNKLA
modifications: phosphopantetheine group (PPant) on Ser36
Question: For B2, which stoichiometry N [2] is on record?
Answer: 1

B3: FabX (Helicobacter pylori) (protein)
chain: MVSTLKPLKIGKHTIKFPIFQGGMGVGISWDELAGNVAKEGALGVISAVGTGYYKNMRFVERIVAKKPFEALNFYSKKALNEIFANARKICGNNPLGANILYAINDYGRVLRDSCEAGANIIITGAGLPTNMPEFAKDFSDVALIPIISSAKALKILCKRWSDRYKRIPDAFIVEGPLSGGHQGFKYEDCFKEEFRLENLVPKVVEASKEWGNIPIIAAGGIWDRKDIDTMLSLGASGVQMATRFLGTKECDAKVYADLLPTLKKEDILLIKSPVGYPARAINTGVIKRIEEGNAPKIACVSNCVAPCNRGEEAKKVGYCIADGLGRSYLGNREEGLYFTGANGYRVDKIISVHELIKELTEG
notes: full length, 363 residues; expressed in E. coli BL21(DE3) Rosetta; monomer in the asymmetric unit; holds FMN and a [4Fe-4S] cluster
Question: Which results are given for B3?
Answer: Km [3]: 125.40 µM; kcat [3]: 0.0186 s⁻¹

Reference: paper PMC8626469, “Helicobacter pylori FabX contains a [4Fe-4S] cluster essential for unsaturated fatty acid synthesis” (Nature Communications, 2021)
